In PMC12302650, “A tubulin-binding protein that preferentially binds to GDP-tubulin and promotes GTP exchange” (The Journal of Biological Chemistry, 2025):

B1: Xenopus laevis BuGZ (Bub3-interacting and GLEBS motif-containing protein ZNF207), full-length wild type (natural protein)
chain: not shown
notes: BuGZ (ZNF207), Xenopus laevis, UniProt Q7ZXV8; full-length wild type; also called wild-type BuGZ; full-length BuGZ; source: purified
B2: BuGZ-NTD (domain or fragment)
chain: not shown
notes: BuGZ (ZNF207), Xenopus laevis, UniProt Q7ZXV8; the N-terminal 92 amino acids, which contain the two zinc fingers; The discussion says the zinc finger domain of BuGZ can be produced in bacteria; also called BuGZ's N-terminal domain; N-terminal 92 amino acids of BuGZ; source: purified

Assays:
[1] = biological target: T1, GDP-tubulin (biotinylated α/β-tubulin heterodimer with GDP-bound β-tubulin) (UniProt Q71U36 1-451; Q9H4B7 1-451, biotinylated tubulin (chain and residues not stated) | biotinylated tubulin (chain and residues not stated)); assay: cell-based or functional assay
[2] = biological target: GTP-tubulin (biotinylated α/β-tubulin heterodimer with GTP-bound β-tubulin) (UniProt Q71U36 1-451; Q9H4B7 1-451, biotinylated tubulin (chain and residues not stated) | biotinylated tubulin (chain and residues not stated)); assay: pull-down; supernatant depletion at equilibrium; varying concentrations of biotinylated GTP-tubulin on streptavidin-coated magnetic beads; BuGZ construct (or mEGFP control) in solution, BuGZ 1.19 μM; 4 °C; nocodazole present; depletion from the supernatant measured by immunoblotting; conditions: both partners purified
[3] = biological target: taxol-stabilized microtubules (polymerized with a 1:10 mixture of biotin-labeled: unlabeled GTP-tubulin) (UniProt Q71U36 1-451; Q9H4B7 1-451, biotin on part of the tubulin (1:10 biotin-labeled: unlabeled; chain and residues not stated) | biotin on part of the tubulin (1:10 biotin-labeled: unlabeled; chain and residues not stated)); assay: pull-down; supernatant depletion at equilibrium; varying concentrations of biotin-containing taxol-stabilized microtubules on streptavidin-coated magnetic beads; BuGZ 1.19 μM; 4 °C; BuGZ left in the supernatant measured by quantitative immunoblotting; fit with a rectangular hyperbola (Equation S1); conditions: both partners purified
[4] = biological target: T1, GDP-tubulin (biotinylated α/β-tubulin …); assay: pull-down; supernatant depletion at equilibrium, same assay as for GTP-tubulin but with bead-bound GDP-tubulin; BuGZ construct (or mEGFP control) in solution; fit with Equation S2 for wild-type BuGZ; conditions: both partners purified

Binder	GTP α-32P incorporation into 100 μM GDP-tubulin at equilibrium (1:1 GTP:GDP, 1.19 μM BuGZ, room temperature), increase relative to the control condition [1]	Kd [2]	Kd [3]	Kd [4]
B1	60.1%	477 nM	9450 nM	45.3 nM
B2		7140 nM		1470 nM
